Data published in article PMC4641729, “NurA Is Endowed with Endo- and Exonuclease Activities that Are Modulated by HerA: New Insight into Their Role in DNA-End Processing” (PLoS ONE, 2015).
Each block holds one binder with its values, some of them ahead of it.

B5: Sulfolobus solfataricus HerA (enzyme, UniProt Q97WG8 1-500, looked up)
chain: MIIGYVIGQATTQEALILAERPVRLGTYVVLEYDNVKALGLITNVTRGSPMLDDNMNDIEIVQRLKQFNNSIPVYTKAKVKMLCDMNNHFLMPDIPPFAGTPAREAEDEELKSIYSQDGQIRIGSLIGKNVEVKLNINSFARHLAILAATGSGKSNTVAVLSQRISELGGSVLIFDYHGEYYDSDIKNLNRIEPKLNPLYMTPREFSTLLEIRENAIIQYRILRRAFIKVTNGIREKLKEGQIPFSTLNSQFYELMKDELETQGNSDKKSSAKDEVLNKFEEFMDRYSNVIDLTSSDIIEKVKRGKVNVVSLTQLDEDSMDAVVSHYLRRILDSRKDFKRSKNSGLKFPIIAVIEEAHVFLSKNENTLTKYWASRIAREGRKFGVGLTIVSQRPKGLDENILSQMTNKIILKIIEPTDKKYILESSDNLSEDLAEQLSSLDVGEAIIIGKIVKLPAVVKIDMFEGKLLGSDPDMIGEWKKVEESEKIAKGFADFGTEIGD
notes: HerA ATPase, ORF SSO2251, Sulfolobus solfataricus strain P2; whole ORF amplified from genomic DNA with primers from the start codon to the stop codon, cloned BamHI/EcoRI into pet29a; 56 kDa as monomer; Hexamer in solution by gel filtration; Cloned at BamHI/EcoRI of pet29a, downstream of the vector's N-terminal S-tag; also called SSO2251; source: E. coli BL21-CodonPlus(DE3)-RIL, purified (heat …)

Assays:
[1] = target: the molecule itself; assay: SEC; Superdex 200 10/300 GL gel filtration; 800 μg HerA and 200 μg NurA, separately or mixed, incubated at 60°C for 20 min before gel filtration; fractions analysed by SDS-PAGE
[2] = target: B5; assay: as above; settings: both partners purified
[3] = target: T1, HerA (Sulfolobus solfataricus P2, UniProt Q97WG8 1-500); assay: EMSA; 5 mM MgCl2, 2 mM EDTA; preferred substrate; EMSA: 20 mM HEPES/NaOH pH 7.5, 3.5 mM beta-mercaptoethanol, 50 mM NaCl, 5 mM MgCl2, 2 mM EDTA, 2 pmol DNA in 10 ul, 10 min at room temperature (NurA+HerA: 20 min at 70 C, then DNA 30 min at room temperature); 5% PAGE, 0.5x TBE; settings: protein: recombinant, cloned BamHI/EcoRI in pET29a, so a vector-derived N-terminal extension is possible, chain copies: 6
T1 sequence: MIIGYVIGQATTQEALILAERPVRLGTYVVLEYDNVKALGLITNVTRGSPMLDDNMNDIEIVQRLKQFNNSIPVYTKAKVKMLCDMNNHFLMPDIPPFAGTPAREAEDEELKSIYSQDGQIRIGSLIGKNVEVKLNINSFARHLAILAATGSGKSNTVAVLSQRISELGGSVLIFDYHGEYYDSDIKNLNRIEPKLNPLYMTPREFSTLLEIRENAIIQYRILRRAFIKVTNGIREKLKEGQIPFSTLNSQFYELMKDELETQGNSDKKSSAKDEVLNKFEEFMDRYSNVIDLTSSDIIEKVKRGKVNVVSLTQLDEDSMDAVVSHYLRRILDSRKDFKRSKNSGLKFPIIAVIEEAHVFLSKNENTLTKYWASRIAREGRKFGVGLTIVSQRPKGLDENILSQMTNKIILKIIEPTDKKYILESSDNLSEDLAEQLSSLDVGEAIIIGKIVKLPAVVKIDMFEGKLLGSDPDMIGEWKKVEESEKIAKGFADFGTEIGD

binding result [2]: binds
B1: Sulfolobus solfataricus NurA (enzyme, UniProt Q97WH1 1-339, looked up)
chain: MIRKIYDKLVESHNEIKNQIYNIANYLKQEIQDKVNEYWNEYVINHEQSETCKFVAIDGGSFGRPMRIGIVYAVGAESVIGDNKGVKTLSEDGQIGIFKPGNDAQERISLLMEALELSLALRDGSKGDYILMDGSLSKKIGNKVDIQQFSDEELKLIRNVDLNGIISIKDERKMRDLLMLLNQFLVSKIIEEYDGNVLWISKVSRGRDLFGTDYPDITVLELFTEKRGFSKLIIKNIDIEKISEIPEIEVLRKMEYTTFYTRLDNGKRVIRVDIVGRVDEKIVKEIMDRLSGVSIKGYPFPLLKAHMDVRFSAMDREKIIKLVGSKLHKDIEWWPSQFY
notes: NurA nuclease, ORF SSO2248, Sulfolobus solfataricus strain P2; whole ORF amplified from genomic DNA with primers from the start codon to the stop codon, cloned NdeI/BamHI into pet29a; 39 kDa as monomer; Dimer in solution by gel filtration; Cloned at NdeI with its own stop codon, so probably untagged (surmise); also called SSO2248; NurAwt; source: E. coli BL21-CodonPlus(DE3)-RIL, purified (heat …)
stoichiometry N [1]: 2

B2: ODN2 (single-stranded) (ssDNA)
DNA: GACGTGGGCAAAGGTTCGTCAATGGACTGACAGCTGCATGG
binding result ([3]; label: 5' Cy5, single strand): binds

B3: 70mer EMI fork (70leadCy5/70 lag emi) (mixed)
DNA 1: CGTGACTTGATGTTAACCCTAACCCTAAGAATTCGGCTTAAGTGAGTGTGAGGATATCATGTACGATAGC
DNA 2: CACACTCACTTAAGCCGAATTCTTAGGGTTAGGGTTAACATCAAGTCACG
binding result ([3]; label: 5' Cy5 on strand 1, 3' overhang 20 nt on strand 1): binds

B4: 70mer bubble (70leadCy5/70 lag bubble) (mixed)
DNA 1: CGTGACTTGATGTTAACCCTAACCCTAAGAATTCGGCTTAAGTGAGTGTGAGGATATCATGTACGATAGC
DNA 2: GCTATCGTACATGATATCCTCACACTTTTTTTTTTTTTTTTTTTTGGGTTAGGGTTAACATCAAGTCACG
binding result ([3]; label: 5' Cy5 on strand 1, blunt ends, internal T-tract bubble): binds

Binder: B5
stoichiometry N [1]: 6
